According to patent US20250002586A1 (CDR LIFE, published 2025):
Changes are numbered by the printed parent chain. Read-outs that look alike come from different tables or passages of the source.

B1: CDR-1 (bispecific antibody)
heavy: EVQLVESGGGSVQPGGSLRLSCAASGFTFSTYAMNWVRQAPGKGLEWVGRIRSKANNYATYYADSVKGRFTISRDDSKNTLYLQMNSLRAEDTATYYCVRHGNFGDSYVSWFAYWGQGTTVTVSSASTKGPSVFPLAPSSKSTSGGTAALGCLVKDYFPEPVTVSWNSGALTSGVHTFPAVLQSSGLYSLSSVVTVPSSSLGTQTYICNVNHKPSNTKVDKRVEPKSC
light: EVQLVESGGGLAQAGGSLRVSCVASGRPFTKYAWGWFRQAPGKAREFVATITWDGGKTDYADSVKGRFTISKDSAENSIYLQMNSLKPEDTAVYYCAADRNYCVGHRCYVRPDDYDYWGQGTQVTVSSGGGGSAVVTQEPSLTVSPGGTVTLTCGSSTGAVTTSNYANWVQQKPGKSPRGLIGGTNKRAPGVPARFSGSLLGGKAALTISGAQPEDEADYYCALWYSNHWVFGGGTKLTVLGTVAAPSVFIFPPSDEQLKSGTASVVCLLNNFYPREAKVQWKVDNALQSGNSQESVTEQDSKDSTYSLSSTLTLSKADYEKHKVYACEVTHQGLSSPVTKSFNRGEC
notes: no Fc; also called Format #1; monovalent Fab-VHH HLA-A2/MAGE-A4 x CD3 bispecific
B2: CDR-2 (bispecific antibody)
heavy: B1 heavy
light: AVVTQEPSLTVSPGGTVTLTCGSSTGAVTTSNYANWVQQKPGKSPRGLIGGTNKRAPGVPARFSGSLLGGKAALTISGAQPEDEADYYCALWYSNHWVFGGGTKLTVLGTVAAPSVFIFPPSDEQLKSGTASVVCLLNNFYPREAKVQWKVDNALQSGNSQESVTEQDSKDSTYSLSSTLTLSKADYEKHKVYACEVTHQGLSSPVTKSFNRGECGGGGSEVQLVESGGGLAQAGGSLRVSCVASGRPFTKYAWGWFRQAPGKAREFVATITWDGGKTDYADSVKGRFTISKDSAENSIYLQMNSLKPEDTAVYYCAADRNYCVGHRCYVRPDDYDYWGQGTQVTVSS
notes: no Fc; also called Format #2; monovalent Fab-VHH HLA-A2/MAGE-A4 x CD3 bispecific
B3: CDR-3 (bispecific antibody)
heavy: EVQLVESGGGSVQPGGSLRLSCAASGFTFSTYAMNWVRQAPGKGLEWVGRIRSKANNYATYYADSVKGRFTISRDDSKNTLYLQMNSLRAEDTATYYCVRHGNFGDSYVSWFAYWGQGTTVTVSSASTKGPSVFPLAPSSKSTSGGTAALGCLVKDYFPEPVTVSWNSGALTSGVHTFPAVLQSSGLYSLSSVVTVPSSSLGTQTYICNVNHKPSNTKVDKRVEPKSCGGGGSEVQLVESGGGLAQAGGSLRVSCVASGRPFTKYAWGWFRQAPGKAREFVATITWDGGKTDYADSVKGRFTISKDSAENSIYLQMNSLKPEDTAVYYCAADRNYCVGHRCYVRPDDYDYWGQGTQVTVSS
light: AVVTQEPSLTVSPGGTVTLTCGSSTGAVTTSNYANWVQQKPGKSPRGLIGGTNKRAPGVPARFSGSLLGGKAALTISGAQPEDEADYYCALWYSNHWVFGGGTKLTVLGTVAAPSVFIFPPSDEQLKSGTASVVCLLNNFYPREAKVQWKVDNALQSGNSQESVTEQDSKDSTYSLSSTLTLSKADYEKHKVYACEVTHQGLSSPVTKSFNRGEC
notes: no Fc; also called Format #3; monovalent Fab-VHH
B4: CDR-4 (bispecific antibody)
heavy: EVQLVESGGGLAQAGGSLRVSCVASGRPFTKYAWGWFRQAPGKAREFVATITWDGGKTDYADSVKGRFTISKDSAENSIYLQMNSLKPEDTAVYYCAADRNYCVGHRCYVRPDDYDYWGQGTQVTVSSGGGGSEVQLVESGGGSVQPGGSLRLSCAASGFTFSTYAMNWVRQAPGKGLEWVGRIRSKANNYATYYADSVKGRFTISRDDSKNTLYLQMNSLRAEDTATYYCVRHGNFGDSYVSWFAYWGQGTTVTVSSASTKGPSVFPLAPSSKSTSGGTAALGCLVKDYFPEPVTVSWNSGALTSGVHTFPAVLQSSGLYSLSSVVTVPSSSLGTQTYICNVNHKPSNTKVDKRVEPKSC
light: B3 light
notes: no Fc; also called Format #4; monovalent Fab-VHH HLA-A2/MAGE-A4 x CD3 bispecific
B5: CDR-5 (bispecific antibody)
heavy: B3 heavy
light: B1 light
B6: CDR-6 (bispecific antibody)
heavy: B3 heavy
light: B2 light
B7: CDR-15 (bispecific antibody)
heavy: EVQLVESGGGLVQPGGSLRLSCAASGFTFSTYAMNWVRQAPGKGLEWVGRIRSKYNNYATYYADSVKGRFTISRDDSKNTLYLQMNSLRAEDTAVYYCVRHGNFGDSYVSWFAYWGQGTLVTVSSASTKGPSVFPLAPSSKSTSGGTAALGCLVKDYFPEPVTVSWNSGALTSGVHTFPAVLQSSGLYSLSSVVTVPSSSLGTQTYICNVNHKPSNTKVDKRVEPKSCGGGGSSYELTQPPSVSVSPGQTASITCTADTLSRSYASWYQQKPGQSPVLVIYRDTSRPSGIPERFSGSNSGNTATLTISGTQAMDEADYYCATSDGSGSNFQLFGGGTKLTVLGGGGGGSGGGGSGGGGSGGGGSESQVLESGGGSVQPGGSLRLSCTVSGFSLSNYAMSWVRQAPGKGLEYIGIVSSGGTTYYASWAKGRFTISKDTSKNTVYLQMNSLRAEDTASYYCAKDLYYGPTTQSAFNLWGQGTSVTVSS
light: QAVVTQEPSLTVSPGGTVTLTCGSSTGAVTTSNYANWVQQKPGKSPRGLIGGTNKRAPGVPARFSGSLLGGKAALTISGAQPEDEADYYCALWYSNHWVFGGGTKLTVLGQPKAAPSVTLFPPSSEELQANKATLVCLISDFYPGAVTVAWKADSSPVKAGVETTTPSKQSNNKYAASSYLSLTPEQWKSHRSYSCQVTHEGSTVEKTVAPTECSGGGGSSYELTQPPSVSVSPGQTASITCTADTLSRSYASWYQQKPGQSPVLVIYRDTSRPSGIPERFSGSNSGNTATLTISGTQAMDEADYYCATSDGSGSNFQLFGGGTKLTVLGGGGGGSGGGGSGGGGSGGGGSESQVLESGGGSVQPGGSLRLSCTVSGFSLSNYAMSWVRQAPGKGLEYIGIVSSGGTTYYASWAKGRFTISKDTSKNTVYLQMNSLRAEDTASYYCAKDLYYGPTTQSAFNLWGQGTSVTVSS
B8: CDR-8 (bispecific antibody)
heavy: B7 heavy with S323R, D324P, G325S, Q470Y
light: B7 light with S310R, D311P, G312S, Q457Y
notes: no Fc; also called dual pMHC TCE; dual pMHC-targeting T cell engager in Fab-(scFv)2 format
B9: CDR-9 (bispecific antibody)
heavy: B3 heavy with S11L, T95V, T120L, A245V, A247P, V253L, E309K, K320R, P321A, Q356L
light: QAVVTQEPSLTVSPGGTVTLTCGSSTGAVTTSNYANWVQQKPGKSPRGLIGGTNKRAPGVPARFSGSLLGGKAALTISGAQPEDEADYYCALWYSNHWVFGGGTKLTVLGTVAAPSVFIFPPSDEQLKSGTASVVCLLNNFYPREAKVQWKVDNALQSGNSQESVTEQDSKDSTYSLSSTLTLSKADYEKHKVYACEVTHQGLSSPVTKSFNRGECGGGGSEVQLVESGGGLVQPGGSLRLSCVASGRPFTKYAWGWFRQAPGKAREFVATITWDGGKTDYADSVKGRFTISKDSAKNSIYLQMNSLRAEDTAVYYCAADRNYCVGHRCYVRPDDYDYWGQGTLVTVS
notes: no Fc
B10: CDR-10 (bispecific antibody)
heavy: EVQLVESGGGLVQPGGSLRLSCAASGFTFSTYAMNWVRQAPGKGLEWVGRIRSKYNNYATYYADSVKGRFTISRDDSKNTLYLQMNSLRAEDTAVYYCVRHGNFGDSYVSWFAYWGQGTLVTVSSASTKGPSVFPLAPSSKSTSGGTAALGCLVKDYFPEPVTVSWNSGALTSGVHTFPAVLQSSGLYSLSSVVTVPSSSLGTQTYICNVNHKPSNTKVDKRVEPKSCGGGGSEVQLVESGGGLVQPGGSLRLSCVASGRPFTKYAWGWFRQAPGKAREFVATITWDGGKTDYADSVKGRFTISKDSAKNSIYLQMNSLRAEDTAVYYCAADRNYCVGHRCYVRPDDYDYWGQGTLVTVSS
light: QAVVTQEPSLTVSPGGTVTLTCGSSTGAVTTSNYANWVQQKPGKSPRGLIGGTNKRAPGVPARFSGSLLGGKAALTISGAQPEDEADYYCALWYSNHWVFGGGTKLTVLGTVAAPSVFIFPPSDEQLKSGTASVVCLLNNFYPREAKVQWKVDNALQSGNSQESVTEQDSKDSTYSLSSTLTLSKADYEKHKVYACEVTHQGLSSPVTKSFNRGECGGGGSEVQLVESGGGLVQPGGSLRLSCVASGRPFTKYAWGWFRQAPGKAREFVATITWDGGKTDYADSVKGRFTISKDSAKNSIYLQMNSLRAEDTAVYYCAADRNYCVGHRCYVRPDDYDYWGQGTLVTVSS
notes: no Fc
B11: CDR-11 (bispecific antibody)
heavy: B10 heavy with D106N
light: B10 light with G23R, K44Q, S45A
notes: no Fc

Tests used:
[1] = molecular target: T1, HLA-A*02:01 in complex with the MAGE-A4 peptide … (human); test: SPR (Biacore T200), HLA-A*02:01/MAGE-A4 peptide complex on streptavidin chip, 1:1 Langmuir fit
T1 construct: Recombinant complex as immobilised (500 RU) for SPR; also called HLA-A2/MAGE-A4 complex; pMHC-MAGE-A4 antigen
Method: (§1) Affinity characterization of HLA-A2/MAGE-A4×CD3 bispecific antibodies was performed by surface plasmon resonance (SPR). All experiments were conducted using a Biacore™ T200 Device (Cytiva). To determine the kinetic parameters of the binding of the bispecific antibodies to the HLA-A2/MAGE-A4 complex, a streptavidin chip (SAHC30M, XanTec) was coated according to the manufacturer's instructions with 500 RU HLA-A*02:01 in complex with the MAGE-A4 peptide. The resulting affinities presented herein correspond to the measurements performed with the respective monovalent antigen binding proteins. […] Uncoated channels were used for referencing. Data fitting was performed using a 1:1 Langmuir model.

[2] = molecular target: T2, MAGE-A4 peptide … presented by HLA-A*02:01 on cells (human); test: cell-based or functional assay
[3] = molecular target: T2, MAGE-A4 peptide … presented by …; test: cell-based or functional assay; remark: listed apart in the source
[4] = molecular target: T1, HLA-A*02:01 in complex with the MAGE-A4 …; test: SPR, HLA-A*02:01/MAGE-A4 complex on streptavidin chip; measured in monovalent format
Method: as §1

[5] = molecular target: CD3 heterodimer (Acro Biosystems) (UniProt P07766 23-126); test: SPR (Biacore T200), CD3 heterodimer on HC30M chip, 1:1 Langmuir fit
Chain of CD3 heterodimer (Acro Biosystems) (P07766 23-126, one chain of several): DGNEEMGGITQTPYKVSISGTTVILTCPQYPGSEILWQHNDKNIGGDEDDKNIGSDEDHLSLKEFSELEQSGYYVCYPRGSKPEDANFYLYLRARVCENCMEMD

Binder | Kd [1] | U20S cell killing, IC50 [2] | also measured
B1 | 1.5 nM | 0.1 nM | 
B2 | 2.6 nM | 0.18 nM | 
B3 | 1.9 nM | 0.24 nM | 
B4 | 1.3 nM | 0.5 nM | 
B5 |  |  | U20S cell killing, IC50 [3]: 0.01 nM
B6 |  |  | U20S cell killing, IC50 [3]: 0.02 nM
B7 |  |  | Kd [4]: 41 nM
B8 |  |  | Kd [4]: 0.1 nM
B9 |  |  | Kd [5]: 54 nM
B10 |  |  | Kd [5]: 11 nM
B11 |  |  | Kd [5]: 1.2 nM
